This note sets out measurements from patent US20250011447A1 (EXCYTE BIOPHARMA, published 2025).

Assay [1] deals with T1, human BCMA on the cell membrane surface (H929 and RPMI8226 cells) (human, UniProt Q02223 1-184).
T1 construct: whole, on cells; also called BCMA antigen on the cell membrane surface; BCMA-expressing cell line H929
T1 sequence (looked up): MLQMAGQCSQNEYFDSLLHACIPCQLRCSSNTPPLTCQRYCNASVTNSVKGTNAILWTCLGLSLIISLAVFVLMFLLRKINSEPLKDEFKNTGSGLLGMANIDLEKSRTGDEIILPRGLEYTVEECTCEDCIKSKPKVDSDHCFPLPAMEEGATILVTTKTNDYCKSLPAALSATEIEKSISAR
Description: flow cytometry on H929 cells, scFv-Fc. For orientation: Flow cytometry measures light scatter and fluorescence of single cells or particles in a stream.

For assay [2], the target named is T1, human BCMA on the cell membrane surface …. Description: flow cytometry on RPMI8226 cells, scFv-Fc.
Assay [3] has the same target. Briefly: flow cytometry on RPMI8226 cells (as the text tells it; the table gives this value to J6); flow cytometry on RPMI8226 cells; value as the text of paragraph 107 assigns it.
Assay [4] has the same target. Briefly: flow cytometry on RPMI8226 cells, EC50 ratio (as the table labels it).
Assay [5] shares this target. Description: flow cytometry on RPMI8226 cells (as the table labels it; the text gives this value to J6).
Assay [6] shares this target. Briefly: flow cytometry on RPMI8226 cells, EC50 ratio. An excerpt:
(§1) In order to understand the apparent affinity of these antibodies to BCMA on the cell surface, the binding of B10 parental antibody and the finally obtained 4 mutants to BCMA-expressing cell line RPMI8226 were compared with J6 by flow cytometry (see Graph B of FIG. 4, Table 4).

For assay [7], the target named is T2, BCMA-Fc fusion protein (Acrobiosystems, catalog number BC7-H5254) (human, UniProt Q02223 1-54, biotin cross-linked, 3 to 5 biotin molecules per molecule, where the biotinylated antigen is used (ELISA of Table 3); sites not stated).
T2 construct: Bought protein; also called BCMA antigen; BCMA-Fc antigen; not shown: human Fc of the bought fusion protein
T2 sequence (looked up): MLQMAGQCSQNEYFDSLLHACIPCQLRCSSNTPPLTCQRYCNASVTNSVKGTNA
Description: ELISA EC50 relative to J6. Here is the method: (§2) After antibodies with different concentrations were coated on enzyme-linked plates, the biotinylated BCMA antigen, streptavidin-conjugated horseradish peroxidase (HRP) and chromogenic substrate were added step by step. The obtained signal-antibody gradient curve is shown in Graph A of FIG. 4, and the relative affinity change fold is shown in Table 3.

The target of assay [8] is T2, BCMA-Fc fusion protein (Acrobiosystems, …). Briefly: affinity worked out from the ELISA EC50 fold against J6 (taken as about 0.2 nM). Here is the method:
as §2
In general terms: In an ELISA, binding on a coated surface is turned into a signal by an enzyme label.

In assay [9] the target is T1, human BCMA on the cell membrane surface …. Briefly: flow cytometry on RPMI8226 cells.
Description: as §1

The target in assay [10] is T2, BCMA-Fc fusion protein (Acrobiosystems, …). Description: ELISA, BCMA-Fc coated at 0.25 µg/ml, Fab from E. coli, HRP anti-human Fab. As for the experimental part:
The conditions of the enzyme-linked reaction were optimized through preliminary experiments, to allow the A450 absorption value of the binding of B10 parental antibody Fab to the antigen BCMA-Fc 3 times higher than the background signal. The BCMA-Fc antigen was coated at 0.25 μg/ml on the enzyme-linked plate one day in advance, and the secreted and expressed mutant Fab was added to the wells on the following day, with HRP-conjugated anti-human Fab as the second antibody, the substrate was colored, and A450 was read, to obtain clones corresponding to the wells with signals 1.5 times higher than the maximum value of the parental wells, and these clones were called hits. All hits of the light and heavy chain variable regions were collected, inducted to express and tested by ELISA to verify their affinity higher than the parental antibody. Sequence analysis of mutant regions of the plasmid of the re-positive clone was performed, to obtain the mutation information of CDR amino acids. The process was called primary screening. All mutation information in the CDR region that was beneficial to the improvement of affinity was obtained: mutation sites that improved affinity in the heavy chain variable region CDR are shown in Table 1, and those in the light chain variable region CDR are shown in Table 2.

B1: B10 scFv-Fc protein (B10 parental antibody) (Fc fusion)
scFv: QVQLQQSGAEVKKPGSSVKVSCKASGGTFSSYAISWVRQAPGQGLEWMGGIIPIFGTANYAQKFQGRVTITADESTSTAYMELSSLRSEDTAVYYCARGWYFDLWGRGTLVTVSSASTGGSSRSSSSGGGGSGGGGLPVLTQPPSASGTPGQRVTISCSGSSSNIGGYSVNWYQQFPGTAPKLLIYRNNQRPSGVPDRFSGSKSGASASLAISGLQSEDEADYYCAAWDDSLIGYVFGTGTQLTVL
notes: scFv gene fused with the Fc gene of human IgG4 (plasmid pFH-B10); also called clone B10; scFv-Fc protein of B10; not shown: Fc of human IgG4 from vector pFH
Broadly, the EC50 is the concentration giving half of the maximal effect. Read a low EC50 as an effect from little substance. As to B1, the percentage of binding turned out to be 75.3% in assay [1] and 5.54% in assay [2]. Further, the EC50 in [3] amounted to 2.74 mg/L; in assay [5], 1.57 mg/L. The “Fold increase relative to J6” value in assay [4] turned out to be 0.57 fold.

B2: B10.4 scFv-Fc (Fc fusion)
scFv: QVQLQQSGAEVKKPGSSVKVSCKASGGTFSKSAIMWVRQAPGQGLEWMGGVIPIFGTANYAQKFQGRVTITADESTSTAYMELSSLRSEDTAVYYCARGWYLDLWGRGTLVTVSSASTGGSSRSSSSGGGGSGGGGLPVLTQPPSASGTPGQRVTISCSGSSNNIGGYSVNWYQQFPGTAPKLLIYRNNQRPSGVPDRFSGSKSGASFSLAISGLQFEDEADYYCARWDDSVIGWVLGTGTQLTVL
notes: also called mutant B10.4; not shown: Fc (scFv-Fc)
The term Kd denotes the constant that tells how readily two partners part at equilibrium. A low value points to higher affinity. Regarding B2, the percentage of binding is 97.9% in assay [1] and 57.5% in [2]. The “Fold increase relative to J6” value in assay [6] turned out to be 79.9 fold. Besides, the “Fold of J6” value in [7] came to 1.55 fold. In assay [8], this molecule had a Kd of 0.31 nM. Also, in assay [9], the EC50 was 0.0343 mg/L.

B3: B10.5 scFv-Fc (Fc fusion)
scFv: QVQLQQSGAEVKKPGSSVKVSCKASGGTFSKSAIHWVRQAPGQGLEWMGGVIPIFGTANYAQKFQGRVTITADESTSTAYMELSSLRSEDTAVYYCARGWYLDLWGRGTLVTVSSASTGGSSRSSSSGGGGSGGGGLPVLTQPPSASGTPGQRVTISCSGSSSNIGGYSVNWYQQFPGTAPKLLIYRNNQRPSGVPDRFSGSKSGASASLAISGLQSEDVADYYCAAWDDSLIGYVFGTGTQLTVL
notes: also called mutant B10.5; not shown: Fc (scFv-Fc)
Take B3: the percentage of binding in assay [1] was determined as 97.2%; in [2] it was 58.2%. The “Fold increase relative to J6” value in [6] is 67.5 fold. For the same molecule, the “Fold of J6” value in assay [7] was 1.35 fold. Further, binding in [8] was put at a Kd of 0.27 nM. This molecule also registered a half-maximal effective concentration (EC50) in [9] of 0.0406 mg/L.

B4: B10.9 scFv-Fc (Fc fusion)
scFv: QVQLQQSGAEVKKPGSSVKVSCKASGGTFSKSAIQWVRQAPGQGLEWMGGVIPIFGTANYAQKFQGRVTITADESTSTAYMELSSLRSEDTAVYYCARGWYLDLWGRGTLVTVSSASTGGSSRSSSSGGGGSGGGGLPVLTQPPSASGTPGQRVTISCSGSSNNIGGYSVNWYQQFPGTAPKLLIYRNNQRPSGVPDRFSGSKSGASASLAISGLQSEDEADYYCAAWDDSEIGWLFGTGTQLTVL
notes: also called mutant B10.9; not shown: Fc (scFv-Fc)
For the molecule B4, the percentage of binding in assay [1] is 91.6%; in assay [2] it was 42.9%. Moreover, the “Fold increase relative to J6” value in [6] stood at 60.7 fold. Moreover, in assay [7], the “Fold of J6” value is 1.43 fold. Also, the Kd in assay [8] was found to be 0.29 nM. In addition, in [9], the midpoint of the response, the EC50, lay at 0.0451 mg/L.

B5: B10.3 scFv-Fc (Fc fusion)
scFv: QVQLQQSGAEVKKPGSSVKVSCKASGGTFSKSAIQWVRQAPGQGLEWMGGVIPIFGTANYAQKFQGRVTITADESTSTAYMELSSLRSEDTAVYYCARGWYLDLWGRGTLVTVSSASTGGSSRSSSSGGGGSGGGGLPVLTQPPSASGTPGQRVTISCSGSSNNIGGYSVNWYQQFPGTAPKLLIYRNNQRPSGVPDRFSGSKSGASASLAISGLQSEDEADYYCAAWDDSVIGWLFGTGTQLTVL
notes: also called mutant B10.3; not shown: Fc (scFv-Fc)
As for B5, the percentage of binding came to 98% in assay [1] and 54.9% in [2]. In addition, the “Fold increase relative to J6” value in assay [6] came to 97.1 fold. In addition, in assay [7], the “Fold of J6” value came to 1.29 fold. In assay [8], this molecule returned an equilibrium dissociation constant (Kd) of 0.26 nM. The molecule also showed a half-maximal effective concentration (EC50) in assay [9] of 0.0282 mg/L.

B6: B10 parental antibody Fab (Fab, V domains shown)
VH: QVQLQQSGAEVKKPGSSVKVSCKASGGTFSSYAISWVRQAPGQGLEWMGGIIPIFGTANYAQKFQGRVTITADESTSTAYMELSSLRSEDTAVYYCARGWYFDLWGRGTLVTVSS
VL: LPVLTQPPSASGTPGQRVTISCSGSSSNIGGYSVNWYQQFPGTAPKLLIYRNNQRPSGVPDRFSGSKSGASASLAISGLQSEDEADYYCAAWDDSLIGYVFGTGTQLTVL
notes: Variable regions cloned into vector pUFL and secreted as Fab by E. coli BL21(DE3); also called Fab form of B10
For the molecule B6, the binding result in assay [10] is “binds”.
